Assay results: PMC4551915, “Bacteriophage GIL01 gp7 interacts with host LexA repressor to enhance DNA binding and inhibit RecA-mediated auto-cleavage” (Nucleic Acids Research, 2015)
Where a chain is given by its changes, count along the chain named. Where no end group is shown, it is not given here.

B1: SPR Wt (dinBox1+dinBox1b) (dsDNA)
DNA 1: GTTACTACTCGAGCGTTAAAAAACGAACAAGCGTTTTATAAGTGTTCGGTTTTTGTA
DNA 2: TACAAAAACCGAACACTTATAAAACGCTTGTTCGTTTTTTAA
DNA 3: CGCTCGAGTAGTAAC
B2: SPR B21 (dinBox1b single mutant) (dsDNA)
DNA 1: B1 DNA 1 with G48A
DNA 2: B1 DNA 2 with C10T
DNA 3: CGCTCGAGTAGTAAC
B3: SPR Ns (non-specific; both boxes mutated) (dsDNA)
DNA 1: B1 DNA 1 with G25T, G33T, G44A, G48A
DNA 2: B1 DNA 2 with C10T, C14T, C25A, C33A
DNA 3: CGCTCGAGTAGTAAC
B4: SPR B12 (dinBox1 double mutant) (dsDNA)
DNA 1: B1 DNA 1 with G25T, G33T
DNA 2: B1 DNA 2 with C25A, C33A
DNA 3: CGCTCGAGTAGTAAC
B5: SPR B22 (dinBox1b double mutant) (dsDNA)
DNA 1: B1 DNA 1 with G44A, G48A
DNA 2: B1 DNA 2 with C10T, C14T
DNA 3: CGCTCGAGTAGTAAC
B6: SPR B11 (dinBox1 single mutant) (dsDNA)
DNA 1: B1 DNA 1 with G33T
DNA 2: B1 DNA 2 with C25A
DNA 3: CGCTCGAGTAGTAAC
B7: His6-gp7 (bacteriophage GIL01 gp7, product of ORF7) (natural protein)
chain: His6-MRDKLLDFIIELSQSSKQVVSKSYVIDRLMQVTKEDYKELEKNVEGKKDD

Tests used:
[1] = molecular target: T1, His6-gp7 (Bacillus phage GIL01) (UniProt Q7WSG2); test: DNase I footprinting; conditions: EMSA/footprint: 80 mM NaCl, 25 mM Tris pH 7.5, 5 mM EDTA, 2 mM DTT, 0.1 mg/ml BSA, 0.05 ug/ul poly(dI-dC), room temp; SPR: 25 mM Tris-HCl pH 7.3, 140 mM NaCl …
T1 sequence: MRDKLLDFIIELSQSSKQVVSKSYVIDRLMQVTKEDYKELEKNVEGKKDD

[2] = molecular target: T1, His6-gp7 (Bacillus phage GIL01); test: EMSA; conditions: EMSA/footprint: 80 mM NaCl, 25 mM Tris pH 7.5, 5 mM EDTA, 2 mM DTT, 0.1 mg/ml BSA, 0.05 ug/ul poly(dI-dC), room temp; SPR: 25 mM Tris-HCl pH 7.3, 140 mM NaCl …
His6-gp7 = molecular target: T2, His6-gp7 (Bacillus phage GIL01, UniProt Q7WSG2 1-50); test: SPR; 300 nM gp7; EMSA/footprint: 80 mM NaCl, 25 mM Tris pH 7.5, 5 mM EDTA, 2 mM DTT, 0.1 mg/ml BSA, 0.05 ug/ul poly(dI-dC), room temp; SPR: 25 mM Tris-HCl pH 7.3, 140 mM NaCl, 5 mM EDTA, 2 mM DTT, 0.1 mg/ml BSA, 0.005% P20, 25 C; conditions: protein: recombinant; tags: N-terminal His6 (pQE-30); label: 3'-biotin on S1 anchor; 42 bp; 15 nt 5' overhang annealed to S1
T2 chain: T1 sequence

[3] = molecular target: T3, His6-LexA (Bacillus thuringiensis LexA repressor) (B. thuringiensis, UniProt A0RH75 1-206); test: SPR; Biacore T100, CM5 chip, His-tagged LexA covalently coupled (EDC/NHS, ~2000 RU), no DNA; His-tagged gp7 (1.6-50 nM, 360 s) or gp1 as analyte; 25°C, 30 μl/min, SPR buffer (25 mM Tris-HCl pH 7.3, 140 mM NaCl, 5 mM EDTA, 2 mM DTT, 0.1 mg/ml BSA, 0.005% P20); apparent KD from plot of response against concentration, assuming one gp7 monomer per LexA monomer; conditions: both partners purified
T3 construct: LexA, SOS transcription repressor of Bacillus thuringiensis; insert defined by nucleotide coordinates 3 624 082 through 3 624 714 in B. cereus strain G9842 (GenBank NC_011772), cloned BamHI-HindIII into pQE-30; also called His-tagged LexA; B. thuringiensis LexA repressor; source: E. coli M15 [pREP4], pQE-30, purified (Ni-NTA); not shown: His6, N-terminal, kept
T3 sequence (looked up): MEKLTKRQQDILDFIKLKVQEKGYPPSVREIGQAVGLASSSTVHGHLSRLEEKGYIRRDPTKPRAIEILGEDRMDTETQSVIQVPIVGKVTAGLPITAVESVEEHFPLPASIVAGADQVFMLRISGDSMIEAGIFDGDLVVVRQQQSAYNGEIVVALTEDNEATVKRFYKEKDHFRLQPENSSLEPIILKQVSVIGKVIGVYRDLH

Molecule	binding result (His6-gp7)	other results
GTGTGACAAGATATTCCAAGGGTGCTATAATAGGAAATGAGTTAAAAAACGAACAAGCGTTTTATAAGTGTTCGGTTTTTGTAACATAACTGTAATATAAAAACATTTGCATTACTGGTAACTTTCGGGTAATATTGGTAGCAGAGAGGGACAAACGGGACAAATCGAGACACGATACATACTCTCTATACAAGTGAAAAGAAGGTGGTGCATAT (double strand) [P1 footprint probe WT (-39 to +176)]		binding [1]: no binding
CCAAGGGTGCTATAATAGGAAATGAGTTAAAAAACGAACAAGCGTTTTATAAGTGTTCGGTTTTTGTAACATAACTGTAATATAAAAACATTTGCATTACTGGTAACTTTCGGGTAATATTGGTAGCAGAGAGGGACAAACGGGACAAATCGAGACACGATACATACTCTCTATACAAGTGAAAAGAAGGTGGTGCATAT (double strand) [P1 EMSA probe WT (-25 to +176)]		binding [2]: no binding
B1	no binding	
B2	no binding	
B3	no binding	
B4	no binding	
B5	no binding	
B6	no binding	
B7		Kd [3]: 17.7 nM
